For this series, the system named is Saccharomyces cerevisiae. Put plainly: transcriptional activation domain activity (GFP:mCherry ratio, weighted mean of sorted bins, harmonized to initial dataset scale) (arbitrary fluorescence ratio units); higher = stronger transcriptional activation. The settings on record: beta-estradiol 1 µM; induction time 4 h. In outline:
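Barcoded protein tiles fused to an estradiol-inducible synthetic transcription factor were integrated at the yeast URA3 locus, in diploids carrying a GFP reporter. Cultures were diluted 1:5 into SC with 1 uM beta-estradiol, held 4 hours at 30 °C, sorted into 8 bins by GFP:mCherry ratio, and barcodes sequenced. Tiles under 50 reads were discarded. Activation activity is the read-weighted mean of bin median fluorescence, averaged across barcodes, then linearly mapped onto the initial dataset scale.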
“DGKWCLRFVPRGQRWLLAITRDFTDTAMMSVAARMVWHPIAYTVCLLPVTIAR”: the “transcriptional activation domain activity” value amounted to 55000.

As to “MGVCLCVALFAPFFSLFFFLSPAPYCSGKIWHLSILFLLYHCRRVLPLFILAC”, the “transcriptional activation domain activity” value was 49600.

Consider “KGHVKTGILSANDGVPPTPNLLDYDWNNLNITGYEWISSELRDDALLSAVTLQ”, for which the “transcriptional activation domain activity” value turned out to be 131000.

In the case of “KIHLVNLGQISVFFIHRFLFGLIPLFEITTCAFFPLLISLWHIDYLLFYTVMF”, the “transcriptional activation domain activity” value is 39800.

Regarding “MFWLSVSCYTYKIIRFYYADCGLVGVLKDQVQQCWIHLSYDLVYQYLPNLLNW”, the “transcriptional activation domain activity” value came to 69400.

Regarding “MITTLFSFLLVFFPFFLFRFFLLLLLLNLFLLLLSHFLSLYHQPISPIPPRHH”, the “transcriptional activation domain activity” value stood at 74200.

On to “AAQKFVSDIAADAYQYARVRTNATTGGRSKAEKNAQGGSSAAAKDKSKTVLTL”, for which the “transcriptional activation domain activity” value came out at 29700.

Take “IIRLCSYFQRYVDLPIHNIYDRIAAHASTEILFYANALKEDFFRFGLVYRLYA”: the “transcriptional activation domain activity” value turned out to be 59200.

Turning to “RKLLIALDMRLQNIRSNWKEHHSLTVVIQLTLRLLSLGLSSEVVAGCLDLLKS”, the “transcriptional activation domain activity” value was 64700.

With “EEEDRHRHSRHRSKRSRSRTYSEERHRSRTRDSARRSKTRTKSPDERPPASED”, the “transcriptional activation domain activity” value came to 40900.

Consider “MGGYLFHLLFFSFFLFSSLLRVYYYIVDMGGVLSLLYRFFLLLVTIFVRCIIF”, for which the “transcriptional activation domain activity” value worked out at 57100.

Turning to “KLAKKEPAAAKPKSEKPKAEKKTTEKKPVAKKATTTKKPAAAKPKAAPKPKTA”, the “transcriptional activation domain activity” value was 27000.

As to “MATPSTGAPPPKQIRFVNNQGQPPSKRRRVNAACLTCRKRKTRCDGEKPTCST”, the “transcriptional activation domain activity” value came to 20200.

With “TLLFQIVIAFIDILRHLSLYKIEIENDTICALVGASMNFSDHIYVAFNTLLAI”, the “transcriptional activation domain activity” value amounted to 49500.

As to “GCRNAYEIKTLRFGGVCMLHRCGGGQNCFKECCIDLMICLRFYIPFMKKFCPK”, the “transcriptional activation domain activity” value came to 15900.

Turning to “YMIGLLFRTYFKLKSLNLCKNVLRAVSVSELPSLSEFPKAHQVTFRYYTGVLS”, the “transcriptional activation domain activity” value came to 70100.

Consider “NPPSWHHTLVFWGGKLFFCFYRIILPAYLIGWARTLLYLTLSDLVSSYWLALT”, for which the “transcriptional activation domain activity” value amounted to 51300.

On to “NIFVLHWLPSLSIASLFHTSSSSSPLLAQFFALFRSFFLSIFLFSIVYILLLF”, for which the “transcriptional activation domain activity” value was 72200.

Take “MWWAFIFFFLLSFFLFLLFLGWLAGWQVCCWGFWFLVGFHFGWLGWFGCGITS”: the “transcriptional activation domain activity” value stood at 32000.

Take “MLNLVILAFVIVFSTFLIGCVDYAAIPTHHALSEVMLPHCYARLSPSTVLFLL”: the “transcriptional activation domain activity” value was 39700.

In the case of “MWCTRWFLPLLLLPLPTAPPYFLLLFLFSLTMHAKPCFYCIVLLTTLFVSSCY”, the “transcriptional activation domain activity” value worked out at 47800.

With “SSRYIQTSTLTRLLLTYRQWIFVVVYSHLLLLDHSSQIWWRWMNIFFTLVIWS”, the “transcriptional activation domain activity” value came out at 62300.

With “FGLLIAGWVCFFFFLSPLFPLFPLFPLFFFFFLLVGSPVSVYLWLGFLVWFGL”, the “transcriptional activation domain activity” value came to 32800.

Turning to “KSKSSRSSRRREGEEDDDRRRRRHRHRSRSHSRGRDGDNDDPKEKRRSRRHDD”, the “transcriptional activation domain activity” value stood at 38400.

Regarding “FAGIYSLVHFRKVWSSDHFILRKFMFMIEDLYQLYNLFFSWVAMGNFYLIFYI”, the “transcriptional activation domain activity” value was 67800.

As to “YSASPLEGDSSLPSSLPSSTEDCLLLSLENTITVIAGNQRQAYDSTSSTEEGT”, the “transcriptional activation domain activity” value was 16100.

For the sequence “LRAMVMAAPYDGDINITFTKHRSKIYIRPNNTLSELLSNGWIKFLAIILFIYP”, the “transcriptional activation domain activity” value came to 36600.

Regarding “GPIFILLNYIFLAMLWLKNYRPHHLHILIRTRPYVYVTSNLPRLRFLFRHFLF”, the “transcriptional activation domain activity” value is 48300.

With “LNMLGLALAASGHFPYAVKYDGAIVVANFNMAILMRNEVFGRLLYLLVNTLFA”, the “transcriptional activation domain activity” value was 71600.

For “MLLPFVCLLFFLLAFLFSLSLSALFCFSKRRLIPILFFIASLLLYNFVFPPFF”, the “transcriptional activation domain activity” value was determined as 38400.

Take “VPLCIAVLLLLAPHPSILHVLLNYHYLTLHSTRYFLAHLFVIYTISFLAFSSL”: the “transcriptional activation domain activity” value came out at 47400.

On to “RHYCYIIVLKSLMYESPRIIGFAWKPEEGHFFNKVMYRTFVGLLMLLQVLLVG”, for which the “transcriptional activation domain activity” value is 55900.

Regarding “MVFGHWCVSRLSHNSQILFLLTMLSFPVCENFFGFICNFIILLFARRTLFFVL”, the “transcriptional activation domain activity” value was 59500.

On to “FVLYFFFFFFLFFFFASGLVFFIRLFFFCAVFSASPYSCCCYYFNCAYPIYVL”, for which the “transcriptional activation domain activity” value is 55700.

On to “MSEREREHRGGRQDRLTGRSRSRSVRRHEKGDKGADDGRQARERHRSRSPARK”, for which the “transcriptional activation domain activity” value was 27400.

Turning to “SVEDAADTTVSTDLKAADDATTEAAADDDAPRKKHKKSKSKKDKHRRAAADAE”, the “transcriptional activation domain activity” value turned out to be 11600.

For the sequence “MYQIEALYLILTYKSIPFYHFNYFSIELIIKPTYLFLYLFFSYLFLHWLNLFD”, the “transcriptional activation domain activity” value was determined as 35100.

On to “RLRVWELGRNSWTVYKFNPDLFPFIDVYPWPRICRLLKCLVFVFRYLEIIRPL”, for which the “transcriptional activation domain activity” value worked out at 51800.

With “MHVAYFMVLFFFIVLIDAHLVVPYIFDVELLTYMLNDAFKFDLFGCFCKVIVI”, the “transcriptional activation domain activity” value amounted to 68900.

With “MGFKLLLLLPYCTPRLIFKKLLLWLRFFFFLHFLFLPRRTLKNLAPCIFFLLY”, the “transcriptional activation domain activity” value was determined as 40900.

Regarding “WLLSVYILGFLAFELASVLIAIRVVAIWRRARPVLVFVVVALLTQFSFIIYLS”, the “transcriptional activation domain activity” value was determined as 23300.

In the case of “PKEAVASTPEEPAASEPVAAPALAAAEPVAAAEAPAAAPVPETKAEEVSIQHL”, the “transcriptional activation domain activity” value was 23600.

“EFVQVAAKPVAKKEESSDEDSDDESEDEKPAAKKAAAPVKVCSGFPYANIALI”: the “transcriptional activation domain activity” value came out at 32200.

As for “ICLALCTVLTTLTLGVSLYFGVVLVRSDFLWQVSFRDLTWSYFVAFGAQVIVD”, the “transcriptional activation domain activity” value turned out to be 41100.

In the case of “MMLVGVVAFNVLKVIPVSDPRCIGVLLVGYVFQGLGFFMTFFYLAIYILRIMT”, the “transcriptional activation domain activity” value amounted to 43600.

Take “SRDRDRKEKTDKTDKDRERDREKERRGEREREREKERERERAERHRERDRERE”: the “transcriptional activation domain activity” value is 32800.

Take “DSSFDLNMNLDLNLNLDSNFNIALNRSDSSGSTMNLDYKLPESANNYTYSSGS”: the “transcriptional activation domain activity” value stood at 90700.

Take “LPDKGKSTEIMTSKLVGRHEFLPVPDFEDQIRRLYENLLISLLSDTQLLIVAW”: the “transcriptional activation domain activity” value is 55800.

Consider “KDQIMYYIHLVIMISTIIQALVQHMIVVNTLPTYFCHPINVFSNFFWHVQFTL”, for which the “transcriptional activation domain activity” value stood at 39300.

On to “SLPYFLYICDWYLCNSFLYLSSILSFHCVYLCCFASIITLWFPAFFLTVILSI”, for which the “transcriptional activation domain activity” value came to 51500.

As to “GATSTDHQHHHHRIQFHSHKPNRNNIVNNSGISAANTTADLTNNDLNDLISRE”, the “transcriptional activation domain activity” value was 31400.

Consider “EIFSSYNASMVQESAGIDFLDFAMPDLIAEANDWAFQGVDSAFFDSVMAGYTL”, for which the “transcriptional activation domain activity” value was found to be 147000.

Consider “YALEWNGLVVRSFAYHTVFGIAKVGFFLYHFLFSSFVFSLLLSLVIFFFFFFF”, for which the “transcriptional activation domain activity” value was found to be 32600.

Regarding “VPGEVSEAEANGETKAEDAPAAEGDAAKPKKKKKKAAKKAKSANGEATEGAPA”, the “transcriptional activation domain activity” value is less than 6570.

Turning to “QNAIELTLLCITLIASDTLLLLRVSALCADRSSGVWGISYFYIIRRLLWGVYF”, the “transcriptional activation domain activity” value was found to be 68700.
